The values below come from patent US20230272011A1 (AVACTA LIFE SCIENCES, published 2023).

Assay [1] addresses T1, mouse serum albumin (mouse, UniProt P07724 25-608).
T1 construct: also called MSA
Put plainly: BLI (Octet), biotinylated albumin on SA sensor, pH 6.0. In short, it runs like this: (§1)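 SA sensor, antigen 1 μg/ml × 600 s; buffer PBS-T 0.01% Tween 20 + 1% casein, pH 6.0 or 7.4; 25° C, 1000 rpm. 1:1 global fit, Rmax unlinked.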

Assay [2] has as its target T2, human serum albumin (human, UniProt P02768 25-609).
T2 construct: mature; Bought protein; biotinylated in the Octet and HTRF assays; also called HSA; HuSA
Nature of the assay: Biacore, immobilised HSA, pH 7.4. As for the experimental part:
(§2) Affinities for mouse, human, and cynomolgus serum were also measured at pH 7.4 for four (4) AFFIMER® binders using surface plasmon resonance (SPR) (FIG. 5, Table 5). […] A concentration titration of AFFIMER® monomers was run as analyte at a flow rate of 30 μl/min or 60 μl/min. Fc2-1, Fc3-1 and Fc4-1 kinetic data was blank subtracted and fit to a 1:1 Langmuir binding model (BIAcore Evalution software; GE) to calculate KD values.
The AFFIMER® polypeptides were produced and purified from E. coli as described in Example 3.

The target of assay [3] is T2, human serum albumin. Nature of the assay: Biacore, immobilised HSA, pH 7.4. The method, then: as §2
This is another data set of the same source.

Assay [4] concerns the target T1, mouse serum albumin. Nature of the assay: BLI (Octet), biotinylated albumin on SA sensor, pH 7.4. In short, it runs like this: as §1
Assay [5] addresses T3, cynomolgus serum albumin (cynomolgus).
T3 construct: also called CSA; cyno serum albumin
The assay is described as above. In a few lines: as §1

Assay [6] concerns the target T2, human serum albumin. The description is as above. In a few lines: as §1
Assay [7] has as its target T1, mouse serum albumin. Nature of the assay: binding ELISA on coated MSA, pH 6.0. As for the experimental part:
Human (Sigma-Aldrich); Cynomolgus and Mouse (Abcam); Equine (Abcam); Canine (Abcam); Mouse (Sigma-Aldrich); Rabbit (Sigma-Aldrich); Porcine (Sigma-Aldrich);, and Rat (Sigma-Aldrich) serum albumin were coated overnight on 96 well plates (Corning Costar) at 1 μg/ml in PBS at the appropriate pH (pH 6.0 or 7.4). Plates were saturated using 5% Casein (Sigma-Aldrich) buffer in PBS. […] Plates were then washed and AFFIMER® proteins were detected using a biotinylated polyclonal antibody anti-Cystatin (R&D System) for 90 minutes. After washing, streptavidin-HRP (Thermo Fisher Scientific) was added and incubated for 30 minutes.
Briefly, PD-1 was coated overnight on the plate at 1 μg/ml in carbonate buffer. Then plates were saturated using 5% Casein/PBS buffer. […] After saturation, the mix was added to the plates and incubated for 90 minutes. Plates were then washed and the detection polyclonal antibody, biotinylated anti-PD-L1, was added. After washing the plates, streptavidin-HRP was added for 30 minutes. After a final wash, development of the reaction was performed using TMB (Pierce) and the plates were read using a plate reader at 450 nm (FIG. 26C).

Assay [8] deals with T1, mouse serum albumin. Nature of the assay: Octet biolayer interferometry, pH 6.0. As for the experimental part: (§3) Biotinylated antigen was captured onto SA sensors at 1 μg/ml for 600 seconds in a buffer comprising PBS-T (0.01% Tween 20)+1% casein at either pH 6.0 or 7.4. Association was carried out for 300 seconds and dissociation for 600 seconds, and regeneration was performed using 10 mM glycine pH 1.5 (GE Healthcare) for 3×5 seconds. All steps were carried out at 1000 rpm and 25° C. Purified AFFIMER® polypeptide in two-fold serial dilutions was analyzed at a starting concentration of approximately 10× K_{D value}. Kinetics analyses were carried out using the Octet data analysis software, subtracting the reference sensor (loaded with antigen), aligning the Y-axis to baseline, and using inter-step correction to align association to dissociation. Savitzky-Golay filtering was applied and the data processed. Analysis of the data was carried out with a 1:1 model, global fit, Rₘₐₓ unlinked by sensor.
(§4) AFFIMER® polypeptides were incubated with AcTEV for 1 hour at 30° C. as recommend by the manufacturer (Invitrogen) and removal of cleaved His tag by binding NiNTA resin (Generon) and collecting the cleaved protein flow through. […] Pharmacokinetic profile of IV-injected His tag cleaved AFFIMER® protein compared to C-terminally His-tagged AFFIMER® protein was evaluated.

The target in assay [9] is T3, cynomolgus serum albumin. Nature of the assay: Octet biolayer interferometry, pH 6.0. The method, then: as §3, §4
The target in assay [10] is T2, human serum albumin. Put plainly: Octet biolayer interferometry, pH 6.0. The method, then: as §3, §4
For the next assay, the target named is canine serum albumin (canine, UniProt P49822 25-608). Nature of the assay: binding ELISA on coated albumin, pH 6.0, panel 'Canine SA Binding at pH 6.0'.
For assay [11], the target named is T1, mouse serum albumin. Put plainly: Octet biolayer interferometry, biotinylated albumin on SA sensors, pH 6.0. In short, it runs like this: as §1
Assay [12] deals with T3, cynomolgus serum albumin. The description is as above. In a few lines:
as §1

In assay [13] the target is T2, human serum albumin. Nature of the assay: binding ELISA on coated albumin, pH 6.0, panel 'HSA Binding at pH 6.0'.
Assay [14] has as its target T2, human serum albumin. Nature of the assay: SPR (Biacore), immobilised HSA, Affimer analyte. As for the experimental part:
Affinities for mouse, human, and cynomolgus serum were also measured at pH 7.4 for four (4) AFFIMER® binders using surface plasmon resonance (SPR) (FIG. 5, Table 5). […] A concentration titration of AFFIMER® monomers was run as analyte at a flow rate of 30 μl/min or 60 μl/min. Fc2-1, Fc3-1 and Fc4-1 kinetic data was blank subtracted and fit to a 1:1 Langmuir binding model (BIAcore Evalution software; GE) to calculate KD values. […]

Assay [15] addresses T2, human serum albumin. Put plainly: SPR (Biacore) binding response to HSA at pH 7.4, Affimer at 50 nM. An excerpt:
Final clones were sequence-verified, produced from E. coli, and affinity purified as described in Example 3.

T3 sequence (A2V9Z4 25-608): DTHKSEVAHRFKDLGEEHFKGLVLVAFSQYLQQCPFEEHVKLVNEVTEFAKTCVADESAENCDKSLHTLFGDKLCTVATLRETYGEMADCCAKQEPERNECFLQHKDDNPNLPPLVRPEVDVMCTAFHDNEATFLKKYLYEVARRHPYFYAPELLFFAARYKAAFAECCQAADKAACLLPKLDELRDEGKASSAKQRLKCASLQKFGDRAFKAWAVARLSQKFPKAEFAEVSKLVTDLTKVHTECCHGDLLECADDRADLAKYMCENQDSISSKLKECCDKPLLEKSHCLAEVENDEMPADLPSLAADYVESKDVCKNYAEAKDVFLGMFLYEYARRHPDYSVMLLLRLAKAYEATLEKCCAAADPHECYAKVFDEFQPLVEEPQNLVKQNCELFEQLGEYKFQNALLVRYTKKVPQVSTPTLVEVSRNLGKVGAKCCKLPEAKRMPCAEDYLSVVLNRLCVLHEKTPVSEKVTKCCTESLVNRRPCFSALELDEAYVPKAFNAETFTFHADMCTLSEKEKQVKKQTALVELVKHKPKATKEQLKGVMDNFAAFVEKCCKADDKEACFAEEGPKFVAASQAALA
T1 sequence (P07724 25-608 limits assumed): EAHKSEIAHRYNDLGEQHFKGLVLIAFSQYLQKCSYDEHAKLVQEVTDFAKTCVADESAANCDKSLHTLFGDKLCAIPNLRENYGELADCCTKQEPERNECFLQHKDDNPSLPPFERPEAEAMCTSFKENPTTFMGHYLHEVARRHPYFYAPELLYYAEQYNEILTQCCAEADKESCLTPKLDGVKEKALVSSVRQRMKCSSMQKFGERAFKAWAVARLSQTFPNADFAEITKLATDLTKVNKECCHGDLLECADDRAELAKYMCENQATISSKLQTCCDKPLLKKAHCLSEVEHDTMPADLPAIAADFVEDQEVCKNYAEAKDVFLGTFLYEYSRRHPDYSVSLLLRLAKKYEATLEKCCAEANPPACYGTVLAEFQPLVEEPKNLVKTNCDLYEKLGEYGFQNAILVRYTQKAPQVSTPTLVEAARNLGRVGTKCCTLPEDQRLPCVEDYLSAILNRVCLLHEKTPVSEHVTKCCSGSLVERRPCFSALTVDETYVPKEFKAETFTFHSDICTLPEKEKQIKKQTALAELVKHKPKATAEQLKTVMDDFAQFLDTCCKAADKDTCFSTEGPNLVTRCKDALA
Chain of canine serum albumin (P49822 25-608 limits assumed): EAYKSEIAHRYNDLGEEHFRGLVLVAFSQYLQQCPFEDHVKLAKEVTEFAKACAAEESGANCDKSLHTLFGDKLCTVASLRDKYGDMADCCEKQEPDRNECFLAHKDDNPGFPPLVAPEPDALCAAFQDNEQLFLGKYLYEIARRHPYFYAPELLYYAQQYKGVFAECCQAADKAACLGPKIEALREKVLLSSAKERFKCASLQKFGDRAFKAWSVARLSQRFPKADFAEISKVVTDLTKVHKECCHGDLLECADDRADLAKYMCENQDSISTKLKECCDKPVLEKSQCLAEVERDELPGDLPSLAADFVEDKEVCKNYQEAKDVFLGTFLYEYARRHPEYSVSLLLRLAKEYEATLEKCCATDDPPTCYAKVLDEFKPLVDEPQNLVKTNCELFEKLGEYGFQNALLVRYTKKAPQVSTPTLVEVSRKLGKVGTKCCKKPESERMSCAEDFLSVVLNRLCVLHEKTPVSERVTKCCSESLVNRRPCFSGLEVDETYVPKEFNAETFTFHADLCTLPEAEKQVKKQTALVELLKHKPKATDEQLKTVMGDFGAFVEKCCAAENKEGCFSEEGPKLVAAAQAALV

B1: HSA-41 (designed binder)
chain: MIPRGLSEAKPATPEIQEIVDKVKPQLEEKTNETYGKLEAVQYKTQVLANFFQRRWPGSTNYYIKVRAGDNKYMHLKVFNGPWKFRNTDRGADRVLTGYQVDKNKDDELTGFHHHHHH
notes: also called HSA-41 parent; HSA-41 AH parent
Consider B1, for which the Kd with mouse serum albumin [1] turned out to be 95.2 nM; with human serum albumin [2] it was 2.84 nM; in the assay with human serum albumin [3], 3.34 nM; with mouse serum albumin [4] it was 47.9 nM; in the assay with cynomolgus serum albumin [5], 71.5 nM; with human serum albumin [6] it was 5.2 nM. The dissociation constant Kd with mouse serum albumin [8] came out at 50.5 nM; with cynomolgus serum albumin [9], 220 nM; with human serum albumin [10], 11.9 nM; with human serum albumin [14] it was 5.13 nM. Besides, the koff in the assay with human serum albumin [2] was 0.00347 s⁻¹; with human serum albumin [3], 0.00563 s⁻¹; with mouse serum albumin [11], 0.0447 s⁻¹; in the assay with cynomolgus serum albumin [12] it was 0.00717 s⁻¹; with human serum albumin [14], 0.00435 s⁻¹. The kon with human serum albumin [2] stood at 1.22e+06 M⁻¹ s⁻¹; with human serum albumin [3], 1.69e+06 M⁻¹ s⁻¹; with mouse serum albumin [11], 470000 M⁻¹ s⁻¹; in the assay with cynomolgus serum albumin [12], 68100 M⁻¹ s⁻¹; in the assay with human serum albumin [14], 848000 M⁻¹ s⁻¹. For the same molecule, the “EC50 (read off the curve)” value with mouse serum albumin [7] was around 0.7 nM; with canine serum albumin, around 2 nM; with human serum albumin [13], around 0.04 nM. The “binding response” value with human serum albumin [15] worked out at 36.8.
